Measurements published in US20220396825A1, “METHOD FOR PREPARING […]” (KAO CORPORATION, priority 2019, published 2022).

Tested on: fragments of sample DNA (genomic DNA of TA100 strain)
Experiment: Error reduction by single-strand-specific nuclease treatment of DNA fragments (DMSO-exposed library)
Format: biochemical, Salmonella typhimurium
Description: From DNA derived from the DMSO-exposed cells or the 3-MC-exposed cells, a plurality of samples each of which was to give 60 ng or 100 ng of DNA were prepared, and the samples were each fragmented into pieces having a length of approximately 350 bp on average by using a DNA Shearing System ME220. The fragments of each sample were divided into two groups. For the group without nuclease treatment (nontreatment group), the DNA fragments were suspended in Resuspension buffer attached to the TruSeq for End Repair in the subsequent step in accordance with the recommended protocol to afford 60 μL of eluate. For the group with nuclease treatment (treatment group), the DNA fragments were purified through steps of adsorbing on Sample Purification Beads attached to the TruSeq (hereinafter, also expressed as beads, simply), washing twice with 80% ethanol water, and drying in accordance with the recommended protocol. In the subsequent elution operation, the beads were suspended in distilled water (DW, produced by NIPPON GENE CO., LTD.) to afford 30 μL of DNA eluate containing DNA fragments.
S1 nuclease (Promega Corporation, catalog No.: M5761), Mung Bean Nuclease (MBN) (Takara Bio Inc., catalog No.: 2420A), or RecJf (New England Biolabs, catalog No.: M0264L) was used as the single-strand-specific nuclease. The activity values (numbers of units) of the enzymes were defined as follows. • S1 nuclease: an enzymatic activity such that 1 μg of acid-soluble substance is generated per minute at 37° C. in a mixed solution of 30 mM sodium acetate (pH 4.6, 25° C.), 50 mM NaCl, 1 mM ZnCl2, 5% glycerol, and 0.5 mg/mL denatured calf thymus DNA was defined as 1 U. • MBN: an enzymatic activity such that 1 μg of acid-soluble decomposition product is generated per minute at 37° C. and pH 5.0 with thermally denatured calf thymus DNA as a substrate was defined as 1 U. • RecJf: an amount of the enzyme necessary for generating 0.5 ng of deoxyribonucleotide soluble in trichloroacetic acid per minute at 37° C. in 50 μL of whole reaction solution (containing 1×NE Buffer 2 and 1.5 μg of sonicated [^3H]-labeled single-stranded E. coli DNA) was defined as 1 U.
To the DNA eluate obtained in I), 4 μL of 10× Reaction Buffer attached to the S1 nuclease was added. The S1 nuclease was appropriately diluted with 1× Reaction Buffer, 1, 3, 10, 30, 100, or 300 U thereof was added to the DNA eluate, and DW was added thereto to a total volume of 40 μL. For the sample to which 1000 U of the S1 nuclease was to be added, 4.6 μL of 10× Reaction Buffer was added to 30 μL of the DNA eluate obtained by beads purification, and 12 μL of the stock solution of the S1 nuclease was added thereto to a total volume of 46 μL. Each reaction solution with the S1 nuclease was incubated at 30° C. for 30 minutes. Assuming that the whole amount of DNA (60 ng) present at the beginning of library preparation existed in each reaction solution, the numbers of units of the S1 nuclease per 1 ng of DNA were 0.02, 0.05, 0.17, 0.50, 1.67, 5.00, and 16.7 U/ng. For inactivation of the S1 nuclease in each reaction solution, 3 μL of 0.5 M EDTA (pH 8.0) (produced by NIPPON GENE CO., LTD.) was added, and the resultant was incubated at 70° C. for 10 minutes. To purify DNA from the inactivated reaction solution, beads attached to the TruSeq in an amount equal to that of the reaction solution were added and a purification operation was carried out in accordance with the recommended protocol, and the resultant was suspended in Resuspension buffer attached to the TruSeq to afford 60 μL of eluate (S1 nuclease treatment group). […]
To the DNA eluate obtained in I), 5 μL of 10×NE Buffer 2 attached to the RecJf was added. The RecJf was appropriately diluted with 1×NE Buffer 2, and 3, 10, 30, or 100 units thereof was added to the DNA eluate to a total volume of 50 μL. Each reaction solution with the RecJf was stirred, and incubated at 37° C. for 60 minutes. […]

B1: S1 nuclease: single-strand-specific endonuclease (Promega Corporation, catalog No.: M5761) (protein, UniProt P24021 21-287, looked up)
Nuclease S1: WGNLGHETVAYIAQSFVASSTESFCQNILGDDSTSYLANVATWADTYKYTDAGEFSKPYHFIDAQDNPPQSCGVDYDRDCGSAGCSISAIQNYTNILLESPNGSEALNALKFVVHIIGDIHQPLHDENLEAGGNGIDVTYDGETTNLHHIWDTNMPEEAAGGYSLSVAKTYADLLTERIKTGTYSSKKDSWTDGIDIKDPVSTSMIWAADANTYVCSTVLDDGLAYINSTDLSGEYYDKSQPVFEELIAKAGYRLAAWLDLIASQPS
Question: How did the “Error reduction rate, GC to CG” value (S1 nuclease 0.02 U/ng) turn out when B1 was run?
Answer: 30.4%

Question: What about the “Error reduction rate, GC to TA” value (S1 nuclease 0.02 U/ng DNA in reaction solution) of the same molecule?
Answer: 52.8%

Question: And the “Error reduction rate, GC to CG” value (S1 nuclease 0.05 U/ng)?
Answer: 50.6%

Question: What about the “Error reduction rate, GC to TA” value (S1 nuclease 0.05 U/ng) of the same molecule?
Answer: 35.3%

Question: What about the “Error reduction rate, GC to CG” value (S1 nuclease 0.17 U/ng) of the same molecule?
Answer: 84.9%

Question: And the “Error reduction rate, GC to TA” value (S1 nuclease 0.17 U/ng)?
Answer: 83.1%

Question: What about the “Error reduction rate, GC to CG” value (S1 nuclease 0.50 U/ng) of the same molecule?
Answer: 87.5%

Question: What about the “Error reduction rate, GC to TA” value (S1 nuclease 0.50 U/ng) of the same molecule?
Answer: 69.9%

Question: What about the “Error reduction rate, GC to CG” value (S1 nuclease 1.67 U/ng) of the same molecule?
Answer: 86.0%

Question: What about the “Error reduction rate, GC to TA” value (S1 nuclease 1.67 U/ng) of the same molecule?
Answer: 81.7%

Question: What about the “Error reduction rate, GC to CG” value (S1 nuclease 5.00 U/ng) of the same molecule?
Answer: 98.3%

Question: What about the “Error reduction rate, GC to TA” value (S1 nuclease 5.00 U/ng) of the same molecule?
Answer: 84.5%

Question: What about the “Error reduction rate, GC to CG” value (S1 nuclease 16.7 U/ng) of the same molecule?
Answer: 98.1%

Question: And the “Error reduction rate, GC to TA” value (S1 nuclease 16.7 U/ng)?
Answer: 79.6%
